# Assay results taken from patent US12668638B2, “Antibodies that bind EGFR and cMET” (Merus B.V., priority 2017, dated 2026).
# B1: LY2875358: humanized monoclonal cMET antibody emibetuzumab (antibody, chains of the INN, looked up, V domains shown)
# VH: QVQLVQSGAEVKKPGASVKVSCKASGYTFTDYYMHWVRQAPGQGLEWMGRVNPNRRGTTYNQKFEGRVTMTTDTSTSTAYMELRSLRSDDTAVYYCARANWLDYWGQGTTVTVSS
# VL: DIQMTQSPSSLSASVGDRVTITCSVSSSVSSIYLHWYQQKPGKAPKLLIYSTSNLASGVPSRFSGSGSGTDFTLTISSLQPEDFATYYCQVYSGYPLTFGGGTKVEIK
# How the values were obtained:
# [1] = test system: HCC827 tumor cells; experiment: HCC827 xenograft in NSG-hHGFki mice; format: in vivo, mouse
# Description: The VH of the cMET variable domain of PB19748 comprises the amino acid sequence of MF8230 (see FIG. 8). […] The VH of the EGFR variable domain of PB19748 comprises the amino acid sequence of MF8233 of FIG. 7. […] In the chosen model, HCC827 tumor cells are engrafted into immunodeficient NOD SCID gamma (NSG) human hepatocyte growth factor knock-in (hHGFki) mice, that express human HGF (ligand for cMET) in place of endogenous mouse HGF. […] They have no T or B cells, lack functional NK cells, and are deficient in cytokine signaling, which allows for better tumor engraftment.
# Prior to tumor cell engraftment, the cell cycle of HCC827 cells was boosted by culturing the cells overnight in medium supplemented with 20% fetal bovine serum (FBS) at confluency not exceeding 80%. […] The resulting tumors were measured twice each week using calipers. When the mean tumor volume reached approximately 200 mm^3, the mice were randomized into two groups (4-7 mice per group depending on tumor growth and volume) and drug treatment was started.
# Tumor volume was measured twice each week using calipers, and mean tumor volume (and SEM) calculated for each group. When tumor sizes reached 1500 mm^3 mice were euthanized. Treatment was stopped after day 48, and tumor volume in surviving mice was measured up to day 62. […]
# As before, tumor volume was monitored and mean tumor volume (and SEM) calculated in each group. All treatments were stopped after day 60, and tumor volume in surviving mice was measured up to day 82.
# As before, tumor volume was monitored and mean tumor volume (and SEM) calculated in each group. All treatments were stopped after day 93, and tumor volume in surviving mice was measured up to day […].
# In a fourth experiment the effect of a later administration of PB19478 was tested.
# On day 51 when the mean tumor volume had clearly passed the 500 mm 3 mark the mice were randomized into two groups. […] As before, tumor volume was monitored and mean tumor volume (and SEM) calculated in each group. All treatments were stopped after day 72.
# [2] = test system: tumor cell line H1975; conditions: H1975 expresses the cMET ligand HGF; cited from earlier work
# [3] = test system: cMET and EGFR; conditions: cited from earlier work
molecule,measurement,setting,value
"C#Cc1cccc(Nc2ncnc3cc(OCCOC)c(OCCOC)cc23)c1 [erlotinib, reference compound]",anti-tumor response,"[1]; mouse, in vivo",able to induce an anti-tumor response
JNJ-61186372: bispecific cMETxEGFR antibody produced by controlled Fab-arm exchange (Moores et al 2016),activity in vivo,[2],active in vivo
same,"affinity imbalance, greater affinity for cMET than EGFR",[3],approximately 40 ×
B1,anti-tumor response,[1]; antibody 25 mg/kg weekly i.p. plus erlotinib 6 mg/kg daily gavage,less effective than PB8532
same,anti-tumor response,"[1]; antibody 25 mg/kg weekly i.p. plus erlotinib 6 mg/kg daily gavage, listed as LY3875358",less effective
same,anti-tumor response,[1]; antibody 25 mg/kg weekly i.p. plus vehicle (without erlotinib),less effective than PB8532
same,anti-tumor response,"[1]; antibody 25 mg/kg weekly i.p. plus vehicle (without erlotinib), listed as LY3875358",less effective
